Test: soluble on expression in E. coli; label from the status in PepcDB or PDB records

Soluble on expression in E. coli, not soluble:
MGHHHHHHSHMVCSPVTVRIAPPDRRFSRSAIPEQIISSTLSSPSSNAPDPCAKETVLSALKEKKKKRTVEEEDQIFLDGQENKRSCLVDGLTDASSAFKVPRPGPDTLQFTVDVFHFANDSRNMIYITCHLKVTLAEQDPDELNKACSFSKPSNSWFPVEGPADICQCCNKGDCGTPSHSRRQPRVVSQWSTSASRNRRHVTEEADVTVGATDLPGQEW
MKNPYVQITDQEQYKKSIRRIPPKDPNIFLIERPTAGEIIALWWTTSSRGKSTDKYIPKYFKRIYRVDMIKQRKLFIKANVISEENNTYVLTELGEMLVHKYFYIIEEHNNSSNDSFNTERRKLADKILYSLGGEI
MYQTKITGNRLYHTVSKGYGDSVTLFGKTDQGETPMSLLVIALSSCVTMCVQGFYHRQFQQDTLAVSVEASYEEEVFELLVRIDDVLDDKKKADLLAYIGTYCRVKQLLKPEVTVTITLEGLSHV
MSHAVSRLRQERLARSLKPFVARGSRMPRCEGCRLLPSYCMCAWRPRVEARAGMCLVMHDIEALKPTNTGWLIADTVADTFAFGWSRTEVDPRLLELLADPQWQPYLVFPGEYVAAERVVNEVAPLVEGKRPLFILLDATWTEARKMFRKSPYLEPFPVLSLLPEQLSRYRLRRSTRGEHLCTAEVAALCLELAGDEAAGEALGAYLEVFSERYLGAKRHIPLDEASPAHRALAPFRG

Soluble on expression in E. coli, soluble:
METKWRNGDIVQPVLNPEPNTVSYSQSSLIHLVGPSDCTLHGFVHGGVTMKLMDEVAGIVAARHCKTNIVTASVDAINFHDKIRKGCVITISGRMTFTSNKSMEIEVLVDADPVVDNSQKRYRAASAFFTYVSLNQEGKPMPVPQLVPETEDEKKRFEEGKGRYLQMKAKRQGHTEPQP
MGHHHHHHSHIVERVIEATLPTKFYGTFRAVGYKTPLGEIVALVKGRVDEGDVLVRIHSECLTGDVFHSLRCDCGDQLENALKMIDREGKGVAIYMRGHEGRGIGLINKLMAYKLQEEGKDTVDANIELGFPPDMRSYGIAAQILMDLKVKSIRLLTNNPLKIEELKKYGFKIVREPIE
EVKLQESGGDLVQPGGSLKLSCAASGFTFSSYTMSWVRQTPEKRLEWVASINNGGGRTYYPDTVKGRFTISRDNAKNTLYLQMSSLKSEDTAMYYCVRHEYYYAMDYWGQGTTVTVSSAWRHPQFGG
MAHHHHHHASVGRFVQTADPAVTALESPPLPTETRLWRQSPDCQSESDSNRVSGSVLDSVKSNGGPKHASTARLHASQDLPTSVTRFLCLSSSSNSAAAKDLRRQLLVVRDCCVALGNKVKGSELLLLGGSQLSRKVEAMADFNSCLGVIFAASLTFTGETEGVAKDTLCSVVEMLKSAQESGDEKVFRAAVVKIVNRILLCTPLRPPARNAAKETARKSAGKQEQHAEQEPKLEDECLDFLTVEDGVPVLLECVWKRWLRYFEDGYVRYVKKLMAEERQALEAAAAAAAADDYNGEEAQYVDGVSATTTQTISTVPLFTTCQDYWKSPASAYAQFCYILLAIFFVRTKDFSLNYLARVTKLVQYFTYQLEFEDGEPIAVRTDTDAEEDSAQSEDEDDDRTPPQQEGPRKEKQVHSLPMPEYDKAVTQRRFRMSRRSSSQGLVPTVVSFKKAEKPRRHCHKCFFTDALPGDLRPSVEAVRQEEAEAAARDSEEHSHLPVVRRSANLDLSEHSISPQREREQLDACDASMESVQGV
MATIKDVARLAGVSVATVSRVINNSPKASEASRLAVHSAMESLSYHPNANARALAQQTTETVGLVVGDVSDPFFGAMVKAVEQVAYHTGNFLLIGNGYHNEQKERQAIEQLIRHRCAALVVHAKMIPDADLASLMKQMPGMVLINRILPGFENRCIALDDRYGAWLATRHLIQQGHTRIGYLCSNHSISDAEDRLQGYYDALAESGIAANDRLVTFGEPDESGGEQAMTELLGRGRNFTAVACYNDSMAAGAMGVLNDNGIDVPGEISLIGFDDVLVSRYVRPRLTTVRYPIVTMATQAAELALALADNRPLPEITNVFSPTLVRRHSVSTPSLEASHHATSD

From the DeepSol protein solubility set
